According to patent publication US20190077860A1 (EISAI R AND D MANAGEMENT, published 2019):
Residue numbers refer to the chain shown, from its start.

T1: human EphA6 extracellular region-SEAP-His protein (human, UniProt Q9UF33 23-550)
T1 construct: extracellular domain; also called hEphA6-SEAP-His
T1 sequence (looked up): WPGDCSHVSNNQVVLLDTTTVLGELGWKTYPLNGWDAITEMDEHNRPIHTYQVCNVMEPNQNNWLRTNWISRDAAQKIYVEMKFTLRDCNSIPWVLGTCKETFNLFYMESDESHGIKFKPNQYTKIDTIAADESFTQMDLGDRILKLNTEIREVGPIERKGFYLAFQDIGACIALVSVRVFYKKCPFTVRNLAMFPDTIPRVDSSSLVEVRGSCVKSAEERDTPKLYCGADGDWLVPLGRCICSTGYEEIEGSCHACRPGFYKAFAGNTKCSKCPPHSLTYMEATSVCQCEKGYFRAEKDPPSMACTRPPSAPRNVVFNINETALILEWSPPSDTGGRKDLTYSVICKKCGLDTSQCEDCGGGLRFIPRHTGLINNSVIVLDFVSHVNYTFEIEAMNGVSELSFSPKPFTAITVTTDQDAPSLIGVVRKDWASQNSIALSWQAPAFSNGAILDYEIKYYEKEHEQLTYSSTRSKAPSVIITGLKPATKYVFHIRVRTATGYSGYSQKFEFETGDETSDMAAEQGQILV

T2: human EphA1 extracellular region-SEAP-His protein (human, UniProt P21709 26-547)
T2 construct: extracellular domain; also called hEphA1-SEAP-His
T2 sequence (looked up): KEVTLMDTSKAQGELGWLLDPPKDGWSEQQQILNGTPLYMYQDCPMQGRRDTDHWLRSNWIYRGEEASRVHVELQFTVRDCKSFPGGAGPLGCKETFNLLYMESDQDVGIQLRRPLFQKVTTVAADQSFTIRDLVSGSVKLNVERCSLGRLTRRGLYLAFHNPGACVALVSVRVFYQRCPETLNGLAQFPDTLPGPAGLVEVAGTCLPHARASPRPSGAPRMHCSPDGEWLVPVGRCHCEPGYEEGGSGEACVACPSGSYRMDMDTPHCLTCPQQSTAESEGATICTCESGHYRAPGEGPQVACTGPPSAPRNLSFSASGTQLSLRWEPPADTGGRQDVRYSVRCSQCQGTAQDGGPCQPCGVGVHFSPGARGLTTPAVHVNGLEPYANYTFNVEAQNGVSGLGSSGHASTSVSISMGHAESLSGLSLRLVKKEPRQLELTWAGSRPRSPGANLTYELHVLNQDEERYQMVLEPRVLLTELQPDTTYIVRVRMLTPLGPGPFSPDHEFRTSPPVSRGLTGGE

T3: human EphB1 extracellular region-SEAP-His protein (human, UniProt P54762 18-540)
T3 construct: extracellular domain; also called hEphB1-SEAP-His
T3 sequence (looked up): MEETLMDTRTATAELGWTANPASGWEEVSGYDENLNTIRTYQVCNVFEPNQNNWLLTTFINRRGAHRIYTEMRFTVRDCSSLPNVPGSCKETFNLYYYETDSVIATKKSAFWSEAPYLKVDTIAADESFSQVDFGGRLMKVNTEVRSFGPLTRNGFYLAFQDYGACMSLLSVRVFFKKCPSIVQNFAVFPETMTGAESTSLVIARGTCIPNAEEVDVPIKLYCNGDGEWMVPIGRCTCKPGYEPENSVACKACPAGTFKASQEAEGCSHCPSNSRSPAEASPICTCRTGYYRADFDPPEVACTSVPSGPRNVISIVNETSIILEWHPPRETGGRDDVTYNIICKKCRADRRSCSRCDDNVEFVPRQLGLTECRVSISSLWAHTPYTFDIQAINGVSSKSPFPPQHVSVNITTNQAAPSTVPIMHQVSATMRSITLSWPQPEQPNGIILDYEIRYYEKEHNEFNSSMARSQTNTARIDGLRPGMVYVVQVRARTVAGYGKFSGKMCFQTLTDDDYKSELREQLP

T4: human EphA3 extracellular region-SEAP-His protein (human, UniProt P29320 21-541)
T4 construct: extracellular domain; also called hEphA3-SEAP-His
T4 sequence (looked up): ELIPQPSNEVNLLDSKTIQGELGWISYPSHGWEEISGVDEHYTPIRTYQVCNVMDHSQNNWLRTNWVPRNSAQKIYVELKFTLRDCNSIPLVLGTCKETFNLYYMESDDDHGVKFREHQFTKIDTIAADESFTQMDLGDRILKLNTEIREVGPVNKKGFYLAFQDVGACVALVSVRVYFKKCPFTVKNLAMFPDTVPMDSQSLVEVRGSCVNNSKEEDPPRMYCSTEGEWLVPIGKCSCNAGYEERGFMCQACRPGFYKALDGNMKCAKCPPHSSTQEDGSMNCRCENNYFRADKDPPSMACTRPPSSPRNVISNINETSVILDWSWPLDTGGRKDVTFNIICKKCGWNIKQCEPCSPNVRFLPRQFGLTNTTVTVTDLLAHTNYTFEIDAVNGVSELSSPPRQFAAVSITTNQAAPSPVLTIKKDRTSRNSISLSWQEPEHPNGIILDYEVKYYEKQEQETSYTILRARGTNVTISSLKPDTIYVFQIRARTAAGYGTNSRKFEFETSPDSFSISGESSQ

B1: humanized antibody No. 151 (antibody, human IgG2)
heavy: QIQLVQSGSELKKPGASVKVSCKASGYTFTDYSMHWVRQAPGQGLKWMGWINTETGEPTYAQGFTGRFVFSLDTSVSTAYLQISSLKAEDTAVYYCARIPLYYYGSRYWYFDVWGQGTTVTVSSASTKGPSVFPLAPSSRSTSESTAALGCLVKDYFPEPVTVSWNSGALTSGVHTFPAVLQSSGLYSLSSVVTVPSSNFGTQTYTCNVDHKPSNTKVDKTVERKSCVECPPCPAPPAAAPSVFLFPPKPKDTLMISRTPEVTCVVVDVSHEDPEVQFNWYVDGVEVHNAKTKPREEQFNSTFRVVSVLTVVHQDWLNGKEYKCKVSNKGLPAPIEKTISKTKGQPREPQVYTLPPSREEMTKNQVSLTCLVKGFYPSDIAVEWESNGQPENNYKTTPPMLDSDGSFFLYSKLTVDKSRWQQGNVFSCSVMHEALHNHYTQKSLSLSPG
light: DIQMTQSPSSLSASVGDRVTITCRASENIYRNLAWYQQKPGKAPKLLLYAATNLADGVPSRFSGSGSGTDYTLTISSLQSEDFATYYCQHFWGTPWTFGQGTKVEIKRTVAAPSVFIFPPSDEQLKSGTASVVCLLNNFYPREAKVQWKVDNALQSGNSQESVTEQDSKDSTYSLSSTLTLSKADYEKHKVYACEVTHQGLSSPVTKSFNRGEC
notes: human Ig kappa; also called L1-5/HA4
B2: humanized antibody No. 134 (antibody, human IgG2)
heavy: B1 heavy with I2V
light: EIVMTQSPATLSVSPGERATLSCRASENIYRNLAWYQQKPGQSPRLLIYAATNLADGIPARFSGSGSGTEYTLTISSLQSEDFAVYYCQHFWGTPWTFGQGTKVEIKRTVAAPSVFIFPPSDEQLKSGTASVVCLLNNFYPREAKVQWKVDNALQSGNSQESVTEQDSKDSTYSLSSTLTLSKADYEKHKVYACEVTHQGLSSPVTKSFNRGEC
notes: human Ig kappa; also called L2-4/HA2
B3: humanized antibody No. 153 (antibody, human IgG2)
heavy: B1 heavy with I2V
light: B1 light
notes: human Ig kappa; also called L1-5/HA2
B4: humanized antibody No. 159 (antibody, human IgG2)
heavy: B1 heavy with I2V, Q62D, G63D, T65K
light: B1 light with K45Q, S80P
notes: human Ig kappa; also called L1-6/HK2
B5: humanized antibody No. 160 (antibody, human IgG2)
heavy: B1 heavy with Q62D, G63D, T65K
light: B1 light with K45Q, S80P
notes: human Ig kappa; also called L1-6/HK4
B6: humanized antibody No. 158 (antibody, human IgG2)
heavy: B1 heavy with I2V
light: B1 light with K45Q, S80P
notes: human Ig kappa; also called L1-6/HA2
B7: humanized antibody No. 155 (antibody, human IgG2)
heavy: B1 heavy with Q62D, G63D, T65K
light: B1 light
notes: human Ig kappa; also called L1-5/HK4
B8: humanized antibody No. 157 (antibody, human IgG2)
heavy: B1 heavy with I2V, K46E
light: B1 light with K45Q, S80P
notes: human Ig kappa; also called L1-6/HA1
B9: humanized antibody No. 154 (antibody, human IgG2)
heavy: B1 heavy with I2V, K46E, Q62D, G63D, T65K
light: B1 light
notes: human Ig kappa; also called L1-5/HK1
B10: humanized antibody No. 133 (antibody, human IgG2)
heavy: B1 heavy with I2V, K46E
light: B2 light
notes: human Ig kappa; also called L2-4/HA1
B11: humanized antibody No. 132 (antibody, human IgG2)
heavy: B1 heavy
light: B2 light
notes: human Ig kappa; also called L2-4/HA4
B12: humanized antibody No. 156 (antibody, human IgG2)
heavy: B1 heavy
light: B1 light with K45Q, S80P
notes: human Ig kappa; also called L1-6/HA4
B13: humanized antibody No. 152 (antibody, human IgG2)
heavy: B1 heavy with I2V, K46E
light: B1 light
notes: human Ig kappa; also called L1-5/HA1

Target: T1, human EphA6 extracellular …
Assay: ELISA

Row | A450 as % of hEphA4-SEAP-His [%] | Binder
1 | 9.9 | B1
2 | 9.6 | B2
3 | 8.7 | B3
4 | 7.6 | B4
5 | 8.7 | B5
6 | 10 | B6
7 | 7.2 | B7
8 | 9 | B8
9 | 8.4 | B9
10 | 8.8 | B10
11 | 9.7 | B11
12 | 8.9 | B12
13 | 8.3 | B13

Target: T2, human EphA1 extracellular …
Assay: ELISA

Row | A450 as % of hEphA4-SEAP-His [%] | Binder
14 | 7.1 | B1
15 | 5.1 | B2
16 | 6.3 | B3
17 | 5.4 | B4
18 | 6.5 | B5
19 | 6.5 | B6
20 | 5.5 | B7
21 | 6.2 | B8
22 | 6.4 | B9
23 | 4.9 | B10
24 | 4.8 | B11
25 | 5.7 | B12
26 | 5.8 | B13

Target: T3, human EphB1 extracellular …
Assay: ELISA

Row | A450 as % of hEphA4-SEAP-His [%] | Binder
27 | 6.8 | B1
28 | 5.1 | B2
29 | 6 | B3
30 | 5.3 | B4
31 | 6.1 | B5
32 | 6.2 | B6
33 | 5.4 | B7
34 | 6.1 | B8
35 | 6.3 | B9
36 | 4.6 | B10
37 | 4.8 | B11
38 | 5.4 | B12
39 | 5.9 | B13

Target: T5, human EphA4 extracellular region-SEAP-His protein (human, UniProt P54764 20-547)
T5 construct: also called hEphA4-SEAP-His
Assay: ELISA

T5 sequence (P54764 20-547): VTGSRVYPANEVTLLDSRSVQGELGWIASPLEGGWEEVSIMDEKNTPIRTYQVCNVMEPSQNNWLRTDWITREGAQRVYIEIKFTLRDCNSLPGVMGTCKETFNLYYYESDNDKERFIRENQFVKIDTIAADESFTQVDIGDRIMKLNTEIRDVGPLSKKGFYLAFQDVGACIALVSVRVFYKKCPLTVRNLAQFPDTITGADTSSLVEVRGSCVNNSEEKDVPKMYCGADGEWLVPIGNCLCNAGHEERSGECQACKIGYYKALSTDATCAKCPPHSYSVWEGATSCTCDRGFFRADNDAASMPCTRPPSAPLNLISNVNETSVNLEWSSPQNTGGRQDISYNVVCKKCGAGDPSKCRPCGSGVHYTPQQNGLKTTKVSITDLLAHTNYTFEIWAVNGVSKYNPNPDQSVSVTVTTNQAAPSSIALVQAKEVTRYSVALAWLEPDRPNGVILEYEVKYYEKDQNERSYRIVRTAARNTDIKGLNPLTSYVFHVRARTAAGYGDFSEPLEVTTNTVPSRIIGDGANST

Row | A450 as % of hEphA4-SEAP-His [%] | Binder
40 | 100 | B1
41 | 100 | B2
42 | 100 | B3
43 | 100 | B4
44 | 100 | B5
45 | 100 | B6
46 | 100 | B7
47 | 100 | B8
48 | 100 | B9
49 | 100 | B10
50 | 100 | B11
51 | 100 | B12
52 | 100 | B13

Target: SEAP-His (UniProt P05187 23-511)
Assay: ELISA

Chain of SEAP-His (P05187 23-511): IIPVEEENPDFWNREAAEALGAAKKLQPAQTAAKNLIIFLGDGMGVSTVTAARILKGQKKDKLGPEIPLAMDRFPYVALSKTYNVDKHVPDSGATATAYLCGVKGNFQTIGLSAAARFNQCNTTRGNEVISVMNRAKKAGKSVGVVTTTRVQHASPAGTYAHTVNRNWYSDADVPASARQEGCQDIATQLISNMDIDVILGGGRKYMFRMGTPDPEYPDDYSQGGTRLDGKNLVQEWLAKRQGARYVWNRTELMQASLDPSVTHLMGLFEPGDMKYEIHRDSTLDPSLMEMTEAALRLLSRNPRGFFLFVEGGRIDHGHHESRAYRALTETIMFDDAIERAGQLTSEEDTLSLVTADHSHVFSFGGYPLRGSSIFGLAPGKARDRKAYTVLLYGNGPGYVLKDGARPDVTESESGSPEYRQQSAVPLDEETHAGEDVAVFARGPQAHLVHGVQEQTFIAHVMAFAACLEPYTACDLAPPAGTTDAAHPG

Row | A450 as % of hEphA4-SEAP-His [%] | Binder
53 | 6.8 | B1
54 | 5.1 | B2
55 | 5.9 | B3
56 | 5.3 | B4
57 | 6.3 | B5
58 | 6.3 | B6
59 | 5.8 | B7
60 | 6.1 | B8
61 | 6.3 | B9
62 | 4.7 | B10
63 | 4.9 | B11
64 | 5.4 | B12
65 | 5.4 | B13

Target: T4, human EphA3 extracellular …
Assay: ELISA

Row | A450 as % of hEphA4-SEAP-His [%] | Binder
66 | 6.9 | B1
67 | 5 | B2
68 | 6.1 | B3
69 | 5.4 | B4
70 | 6.2 | B5
71 | 6.5 | B6
72 | 5.6 | B7
73 | 6.4 | B8
74 | 6.2 | B9
75 | 5 | B10
76 | 4.8 | B11
77 | 5.7 | B12
78 | 5.8 | B13
